The source of these data is paper doi:10.1101/737510 (bioRxiv, 2019).

The target of this assay is DDA1 (human, UniProt Q9BW61 1-102). As to the kind of experiment: crystal structure.

B1: DDB1(ΔBPB) (natural protein)
chain: MSYNYVVTAQKPTAVNGCVTGHFTSAEDLNLLIAKNTRLEIYVVTAEGLRPVKEVGMYGKIAVMELFRPKGESKDLLFILTAKYNACILEYKQSGESIDIITRAHGNVQDRIGRPSETGIIGIIDPECRMIGLRLYDGLFKVIPLDRDNKELKAFNIRLEELHVIDVKFLYGCQAPTICFVYQDPQGRHVKTYEVSLREKEFNKGPWKQENVEAEASMVIAVPEPFGGAIIIGQESITYHNGDKYLAIAPPIIKQSTIVCHNRVDPNGSRYLLGDMEGRLFMLLLEKEEQMDGTVTLKDLRVELLGETSIAECLTYLDNGVVFVGSRLGDSQLVKLNVDSNEQGSYVVAMETFTNLGPIVDMCVVDLERQGQGQLVTCSGAFKEGSLRIIRNGIGIHGTIDEIQKLHIRTVPLYESPRKICYQEVSQCFGVLSSRIEVQDTSGGTTALRPSASTQALSSSVSSSKLFSSSTAPHETSFGEEVEVHNLLIIDQHTFEVLHAHQFLQNEYALSLVSCKLGKDPNTYFIVGTAMVYPEEAEPKQGRIVVFQYSDGKLQTVAEKEVKGAVYSMVEFNGKLLASINSTVRLYEWTTEKELRTECNHYNNIMALYLKTKGDFILVGDLMRSVLLLAYKPMEGNFEEIARDFNPNWMSAVEILDDDNFLGAENAFNLFVCQKDSAATTDEERQHLQEVGLFHLGEFVNVFCHGSLVMQNLGETSTPTQGSVLFGTVNGMIGLVTSLSESWYNLLLDMQNRLNKVIKSVGKIEHSFWRSFHTERKTEPATGFIDGDLIESFLDISRPKMQEVVANLQYDDGSGMKREATADDLIKVVEELTRIH
With B1, the binding result is reported as “binds”.
